# Laboratory results reported in IntAct's records for PubMed 16002700.
# B1: Natural killer cell receptor 2B4 (Homo sapiens), Q9BZW8 (parent)
# chain: MLGQVVTLILLLLLKVYQGKGCQGSADHVVSISGVPLQLQPNSIQTKVDSIAWKKLLPSQNGFHHILKWENGSLPSNTSNDRFSFIVKNLSLLIKAAQQQDSGLYCLEVTSISGKVQTATFQVFVFESLLPDKVEKPRLQGQGKILDRGRCQVALSCLVSRDGNVSYAWYRGSKLIQTAGNLTYLDEEVDINGTHTYTCNVSNPVSWESHTLNLTQDCQNAHQEFRFWPFLVIIVILSALFLGTLACFCVWRRKRKEKQSETSPKEFLTIYEDVKDLKTRRNHEQEQTFPGGGSTIYSMIQSQSSAPTSQEPAYTLYSLIQPSRKSGSRKRNHSPSFNSTIYEVIGKSQPKAQNPARLSRKELENFDVYS
# Variants of: B1
# Conditions: with cd48_human CD48, P09326
# Chain of cd48_human CD48, P09326 (P09326 whole entry): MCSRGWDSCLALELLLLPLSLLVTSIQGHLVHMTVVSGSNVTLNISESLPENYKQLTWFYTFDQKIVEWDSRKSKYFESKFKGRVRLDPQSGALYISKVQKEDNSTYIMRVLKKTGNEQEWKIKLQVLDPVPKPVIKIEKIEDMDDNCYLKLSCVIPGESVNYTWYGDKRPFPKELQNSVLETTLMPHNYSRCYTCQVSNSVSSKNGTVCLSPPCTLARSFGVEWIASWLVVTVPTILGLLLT
row,effect of a mutation on the interaction,Variant
1,disrupting interaction,K68A;E70A
2,decreasing interaction,K68A
3,decreasing interaction,E70A
